We go through three molecules from paper PMC8484483 (Scientific Reports, 2021).

Common to all, as to conditions: both partners purified
For experiment [1], the target named is T1, recombinant CD30 extracellular domain fused with rabbit IgG1 Fc (Homo sapiens, UniProt P28908).
T1 construct: CD30, human, extracellular domain; also called CD30-rFc; source: Expi293F, transfected; purified on Protein A (as the chimeric antibodies)
Nature of the experiment: flow cytometry on cells; crosslinking: antigen-expressing cells incubated with mAb or BsAb (10 ug/mL), washed twice, then CD30-rFc or TNFR2-rFc (50 ng/mL) 1 h on ice; rFc detected with R-PE anti-rabbit IgG; the antibody is held on the cells by its other arm.

Experiment [2] concerns the target T2, recombinant TNFR2 extracellular domain fused with rabbit IgG1 Fc (Homo sapiens, UniProt P20333).
T2 construct: TNFR2, human, extracellular domain; also called TNFR2-rFc; source: Expi293F, transfected; purified on Protein A (as the chimeric antibodies)
As to the kind of experiment: SPR; Biacore T200; antibodies (1 ug/mL, ca. 400 RU) captured on a CM5 chip with anti-human IgG Fc; TNFR2-rFc and CD30-rFc (10 nM) run one after the other as 1st and 2nd analytes, in both orders; PBS, 0.05% Tween 20, pH 7.4, 25 °C.

The target in experiment [3] is T1, recombinant CD30 extracellular domain …. The description is as above.

T1 sequence (P28908 19-385): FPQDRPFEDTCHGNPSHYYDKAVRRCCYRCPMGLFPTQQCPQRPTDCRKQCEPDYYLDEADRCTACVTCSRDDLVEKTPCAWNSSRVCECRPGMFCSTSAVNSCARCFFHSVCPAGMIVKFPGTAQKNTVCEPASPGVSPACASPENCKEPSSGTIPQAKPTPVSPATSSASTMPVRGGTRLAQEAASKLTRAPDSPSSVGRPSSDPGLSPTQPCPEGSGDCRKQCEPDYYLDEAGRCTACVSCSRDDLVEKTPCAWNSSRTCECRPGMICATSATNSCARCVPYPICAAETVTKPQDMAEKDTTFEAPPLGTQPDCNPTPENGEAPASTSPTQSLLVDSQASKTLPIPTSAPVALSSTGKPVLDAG
T2 sequence (P20333 23-257): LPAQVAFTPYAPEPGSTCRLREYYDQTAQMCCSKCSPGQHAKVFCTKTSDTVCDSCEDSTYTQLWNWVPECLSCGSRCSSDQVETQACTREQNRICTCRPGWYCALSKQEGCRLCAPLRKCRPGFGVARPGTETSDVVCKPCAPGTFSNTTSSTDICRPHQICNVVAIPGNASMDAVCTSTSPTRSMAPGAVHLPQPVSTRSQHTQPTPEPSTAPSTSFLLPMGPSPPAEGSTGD

B1: anti-CD30 T104, human chimeric monoclonal antibody (antibody, V domains shown)
VH: QIQLVQSGPELKKPGETVKISCKASGYTFTDYSMHWVKQAPGKGLKWMGWINTETGEPTYADDFKGRFAFSLETSASTAYLQINNLKNEDTATYFCTEGYVFDFWGQGTTLTVSS
VL: DILLTQSPAILSVSPGERVSFSCRASRSIGTSIHWYQQRTNGSPRLLINYASESISGIPSRFSGSGSGTDFTLSINSVESEDIADYYCQQSNSWPLTFGAGTKLELK
Regarding B1, the binding result is reported as “binds” in experiment [1] and “no binding (tested: 10 nM)” in experiment [2].

B2: C-cleaved side product of the IMPTS reaction, monovalent Fab^CD30-Fc (SEC peak P2) (antibody, V domains shown)
VH: B1 VH
VL: B1 VL
For B2, the results for the binding result in experiment [3] and in experiment [2] were “binds” and “no binding (tested: 10 nM)”, respectively.

B3: anti-TNFR2 TR109, human chimeric monoclonal antibody (antibody, V domains shown)
VH: QVQLKESGPGLVAPSQSLSITCTVSGFSLTVYGVNWVRQPPGKGLEWLGMIWGDGSTAYNSALKSRLTITKDNSKTQVFLKMNSLQTDDTARYYCARDGRRYALDYWGQGTSVTVSS
VL: DIVLTQSPTSLAVSLGQRATISCRASESVDSYGDSFLHWYQQKPGQPPILLIYRASNLDSGIPARFSGSGSRTDFTLTINPVEADDVATYYCQQSNEDPYTFGGGTKLEIK
As to B3, the binding result is recorded as “no binding (tested: 10 nM)” in experiment [3] and “binds” in experiment [2].
